Reference: US20100136660A1 (published 2010)

T1: ovalbumin (UniProt P01012 2-386)
T1 sequence (looked up): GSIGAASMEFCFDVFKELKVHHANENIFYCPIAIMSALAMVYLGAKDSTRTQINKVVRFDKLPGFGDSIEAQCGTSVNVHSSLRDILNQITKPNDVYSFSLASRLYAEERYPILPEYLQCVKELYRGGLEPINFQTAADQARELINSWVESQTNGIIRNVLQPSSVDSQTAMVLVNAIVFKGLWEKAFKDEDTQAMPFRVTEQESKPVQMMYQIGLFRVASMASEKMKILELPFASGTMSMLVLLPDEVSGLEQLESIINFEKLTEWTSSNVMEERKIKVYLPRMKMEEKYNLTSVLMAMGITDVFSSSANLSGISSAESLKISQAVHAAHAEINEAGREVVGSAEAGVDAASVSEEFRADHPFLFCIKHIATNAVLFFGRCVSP

B1: human scFv VH3.5/VL3.5 (BSA binder from unimmunized library) (scFv, V domains shown)
VH: QVQLVQSGGGVVQPGRSLRLSCAASGFTFSSYGMHWVRQAPGKGLEWVAVISYDGSNKYYADSVKGRFTISRDNSKNTLYLQMNSLRAEDTAVYYCAKTGYSSGWGYFDYWGQGT
VL: SSELTQDPAVSVALGQTVRITCQGDSLRSYYASWYQQKPGQAPVLVIYGKNNRPSGIPDRFSGSSSGNTASLTITGAQAEDEADYYCNSRDSSGNHVVFGG
B2: human scFv VH14.1/VL14.1 (lysozyme binder from unimmunized library) (scFv, V domains shown)
VH: QVQLQESGPGLVKPSETLSLVCTVSGGSLSFSYWGWIRQPPGKGLEWIGYISHRGTDYNSSLQSRVTISADTSKNQFSLKLSSVTAADTAVYYCARSFSNSFFFGYWGQGT
VL: SSELTQDPAVSVAFGQTVRITCQGDSLRSSYASWYQQKPGQAPLLVIYGENSRPSGIPDRFSGSSSGNTASLTITGAQAEDEADYYCNSRDSRGTHLEVFGG
notes: scFv on phage from pHEN1
B3: human scFv VH13.1/VL13.1 (lysozyme binder from unimmunized library) (scFv, V domains shown)
VH: QVQLVQSGAEVKKPGQSLMISCQGSGYSFSNYWIGWVRQMPGKGLEWMGIIYPGDSDTRYSPSFQGQVTISADKSISTAYLHWSSLKASDTALYYCARLVGGTPAYWGQGT
VL: HVILTQPASVSGSPGQSITISCTGSSRDVGGYNYVSWYQHHPGKAPKLLISEVTNRPSGVSNRFSGSKSGNTASLTISGLQAEDEADYFCASYTSSKTYVFGG
notes: scFv on phage from pHEN1

Target: T1, ovalbumin
Test: phage ELISA

Row | Binder | binding result
1 | B1 | no binding (tested: 100 ug/ml coating)
2 | B2 | no binding (tested: 100 ug/ml coating)
3 | B3 | no binding (tested: 100 ug/ml coating)

Target: T2, bovine thyroglobulin (Sigma) (bovine, UniProt P01267 20-2769)
T2 construct: the same entry is used
T2 sequence (P01267 20-2769 limits assumed): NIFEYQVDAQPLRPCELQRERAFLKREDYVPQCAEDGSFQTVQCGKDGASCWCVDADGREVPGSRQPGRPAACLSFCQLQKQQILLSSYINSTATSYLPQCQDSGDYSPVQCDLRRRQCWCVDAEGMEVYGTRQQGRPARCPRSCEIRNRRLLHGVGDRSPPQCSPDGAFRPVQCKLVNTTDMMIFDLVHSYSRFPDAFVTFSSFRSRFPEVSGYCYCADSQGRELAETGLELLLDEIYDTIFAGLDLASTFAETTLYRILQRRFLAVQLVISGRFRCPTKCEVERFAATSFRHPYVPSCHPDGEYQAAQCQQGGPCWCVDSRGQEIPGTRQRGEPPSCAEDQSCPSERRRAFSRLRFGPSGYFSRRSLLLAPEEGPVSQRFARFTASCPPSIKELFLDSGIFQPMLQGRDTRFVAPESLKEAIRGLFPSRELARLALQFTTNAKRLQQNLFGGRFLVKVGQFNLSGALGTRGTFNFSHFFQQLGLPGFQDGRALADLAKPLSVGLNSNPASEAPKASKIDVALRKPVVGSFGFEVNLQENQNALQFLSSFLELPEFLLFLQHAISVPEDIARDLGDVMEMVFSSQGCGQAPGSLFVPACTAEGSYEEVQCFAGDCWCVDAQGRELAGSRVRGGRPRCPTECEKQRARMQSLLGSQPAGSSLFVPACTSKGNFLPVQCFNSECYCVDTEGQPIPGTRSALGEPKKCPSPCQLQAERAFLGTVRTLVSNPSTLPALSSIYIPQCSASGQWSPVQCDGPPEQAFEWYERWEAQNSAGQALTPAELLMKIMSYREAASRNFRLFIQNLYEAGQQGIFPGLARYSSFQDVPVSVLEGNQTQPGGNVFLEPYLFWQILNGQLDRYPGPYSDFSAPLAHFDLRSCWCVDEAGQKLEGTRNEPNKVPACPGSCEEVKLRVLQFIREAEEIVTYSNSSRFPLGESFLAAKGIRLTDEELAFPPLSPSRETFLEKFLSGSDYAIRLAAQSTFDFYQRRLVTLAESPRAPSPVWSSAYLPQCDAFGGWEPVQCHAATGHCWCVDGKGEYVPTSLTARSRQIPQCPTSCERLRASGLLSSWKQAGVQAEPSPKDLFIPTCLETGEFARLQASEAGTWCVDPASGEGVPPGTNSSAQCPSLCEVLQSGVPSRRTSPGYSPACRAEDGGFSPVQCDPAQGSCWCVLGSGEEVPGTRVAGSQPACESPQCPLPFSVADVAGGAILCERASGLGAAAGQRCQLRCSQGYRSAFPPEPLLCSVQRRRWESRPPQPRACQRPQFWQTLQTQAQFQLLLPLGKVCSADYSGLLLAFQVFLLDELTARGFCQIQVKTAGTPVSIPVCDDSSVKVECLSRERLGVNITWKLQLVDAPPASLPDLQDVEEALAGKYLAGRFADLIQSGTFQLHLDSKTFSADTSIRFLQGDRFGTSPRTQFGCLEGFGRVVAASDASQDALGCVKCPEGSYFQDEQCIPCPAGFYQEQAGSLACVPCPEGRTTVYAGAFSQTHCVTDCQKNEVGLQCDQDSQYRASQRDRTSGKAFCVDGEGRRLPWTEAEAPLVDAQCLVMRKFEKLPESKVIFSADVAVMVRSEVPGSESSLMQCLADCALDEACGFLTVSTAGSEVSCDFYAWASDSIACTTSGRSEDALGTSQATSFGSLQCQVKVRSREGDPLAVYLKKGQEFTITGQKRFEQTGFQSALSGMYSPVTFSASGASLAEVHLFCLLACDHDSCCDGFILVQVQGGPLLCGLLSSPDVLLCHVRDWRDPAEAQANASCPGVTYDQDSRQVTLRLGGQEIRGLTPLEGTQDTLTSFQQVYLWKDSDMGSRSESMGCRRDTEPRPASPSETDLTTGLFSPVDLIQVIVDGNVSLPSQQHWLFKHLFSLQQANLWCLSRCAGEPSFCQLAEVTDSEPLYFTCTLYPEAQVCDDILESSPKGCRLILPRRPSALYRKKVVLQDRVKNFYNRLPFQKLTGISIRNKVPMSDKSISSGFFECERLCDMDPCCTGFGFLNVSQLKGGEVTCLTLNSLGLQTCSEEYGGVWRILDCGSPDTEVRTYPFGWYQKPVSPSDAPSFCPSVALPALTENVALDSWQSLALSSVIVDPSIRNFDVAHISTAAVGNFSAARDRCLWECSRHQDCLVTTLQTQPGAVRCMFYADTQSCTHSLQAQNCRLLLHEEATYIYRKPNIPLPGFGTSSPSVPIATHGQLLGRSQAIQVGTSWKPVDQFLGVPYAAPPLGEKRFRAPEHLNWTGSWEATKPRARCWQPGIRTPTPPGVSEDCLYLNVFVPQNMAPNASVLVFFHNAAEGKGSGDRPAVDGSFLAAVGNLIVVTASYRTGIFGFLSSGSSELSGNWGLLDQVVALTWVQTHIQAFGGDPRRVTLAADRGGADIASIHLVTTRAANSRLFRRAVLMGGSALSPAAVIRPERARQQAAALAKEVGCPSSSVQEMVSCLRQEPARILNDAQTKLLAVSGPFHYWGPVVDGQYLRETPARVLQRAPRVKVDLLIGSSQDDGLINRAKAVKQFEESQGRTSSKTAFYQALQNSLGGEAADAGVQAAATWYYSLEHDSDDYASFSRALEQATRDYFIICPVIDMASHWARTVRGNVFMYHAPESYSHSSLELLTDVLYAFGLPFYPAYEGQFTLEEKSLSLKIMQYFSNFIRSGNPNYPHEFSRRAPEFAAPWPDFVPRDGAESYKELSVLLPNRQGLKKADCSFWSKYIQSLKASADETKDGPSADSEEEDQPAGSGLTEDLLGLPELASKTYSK
Test: phage ELISA

Row | Binder | binding result
4 | B1 | no binding (tested: 100 ug/ml coating)
5 | B2 | no binding (tested: 100 ug/ml coating)
6 | B3 | no binding (tested: 100 ug/ml coating)
